Assay results from patent US20160244509A1.
Read-outs that look alike come from different tables or passages of the source.

B1: AM23 (antibody, V domains shown)
VH: EVQLVESGGNVVKPGTSLRLSCAATGFNFHNYGMNWVRQAPGKGLEWVAVVWYDGSKKYYADSVTGRFAISRDNSKNTLYLQMNSLRVEDTAVYYCVRDKVGPTPYFDSWGQGTLVTVSS
VL: SYVLTQPPSVSLAPGGTAAITCGRNNIGSETVHWYQQKPGQAPVLVVYDDDDRPSGIPERFSGSNSGNTATLTISRVEAGDEADYYCQVWDRSNYHQVFGGGTKLTV
B2: AM14 (antibody, V domains shown)
VH: EVQLVESGGGVVQPGRSLRLSCAASGFSFSHYAMHWVRQAPGKGLEWVAVISYDGENTYYADSVKGRFSISRDNSKNTVSLQMNSLRPEDTALYYCARDRIVDDYYYYGMDVWGQGATVTVSS
VL: DIQMTQSPSSLSASVGDRVTITCQASQDIKKYLNWYHQKPGKVPELLMHDASNLETGVPSRFSGRGSGTDFTLTISSLQPEDIGTYYCQQYDNLPPLTFGGGTKVEIKRTV
B3: AM16 (antibody, V domains shown)
VH: EVQLVETGGGLAQPGGSLRLSCAASGFTFSSYNMNWVRQAPGKGLEWVSHISAGSSYIYYSDSVKGRFTVSRDNVRNSVYLQMNSLRAADTAVYYCAREDYGPGNYYSPNWFDPWGQGTLVTVSS
VL: QSVVTQPPSVSGAPGQRVTISCTGSSSNIGAGYDVHWYQQLPGTAPKLLIYGNTNRPSGVSDRFSGSKSGTSASLAITGLQAEDEADYYCHSYDRSLSGSVFGGGTKLTV
B4: D25 (B63D10-D25), monoclonal antibody from the B cell line (culture supernatant or purified from it) (antibody, V domains shown)
VH: QVQLVQSGAEVKKPGSSVMVSCQASGGPLRNYIINWLRQAPGQGPEWMGGIIPVLGTVHYAPKFQGRVTITADESTDTAYIHLISLRSEDTAMYYCATETALVVSTTYLPHYFDNWGQGTLVTVSS
VL: DIQMTQSPSSLSAAVGDRVTITCQASQDIVNYLNWYQQKPGKAPKLLIYVASNLETGVPSRFSGSGSGTDFSLTISSLQPEDVATYYCQQYDNLPLTFGGGTKVEIKRTV
B5: recombinant purified D25 (rD25), expressed in 293T cells (antibody, V domains shown)
VH: B4 VH
VL: B4 VL
B6: recombinant GENEART codon optimized D25 (rD25 GA) (antibody, V domains shown)
VH: B4 VH
VL: DIQMTQSPSSLSAAVGDRVTITCQASQDIVNYLNWYQQKPGKAPKLLIYVASNLETGVPSRFSGSGSGTDFSLTISSLQPEDVATYYCQQYDNLPLTFGGGTKVEIKR

Legend:
Experiment in all cases: cell-based or functional assay
[1] = molecular target: RSV F protein of RS virus subtype A strains (A2, X and 2006-1)
[2] = molecular target: RSV F protein of RS virus subtype B strains (2007-2 and Z)
[3] = molecular target: RSV F protein of RS virus subtype B strains (2007-2 and Z); remark: listed apart in the source
[4] = molecular target: RSV F protein of RS virus subtype A strains (A2, X and 2006-1); remark: listed apart in the source

| Binder | IC50 values (ng/ml), RS virus neutralization, HEp2 cells, subtype A [1] [ng/mL] | IC50 values (ng/ml), RS virus neutralization, Vero cells, subtype A [1] [ng/mL] | IC50 values (ng/ml), RS virus neutralization, HEp2 cells, subtype B [2] [ng/mL] | IC50 values (ng/ml), RS virus neutralization, Vero cells, subtype B [2] [ng/mL] | IC50 values (ng/ml), RS virus neutralization, HEp2 cells, subtype B [3] [ng/mL] | IC50 values (ng/ml), RS virus neutralization, Vero cells, subtype B [3] [ng/mL] | IC50 values (ng/ml), RS virus neutralization, HEp2 cells, subtype A [4] [ng/mL] | IC50 values (ng/ml), RS virus neutralization, Vero cells, subtype A [4] [ng/mL] |
| --- | --- | --- | --- | --- | --- | --- | --- | --- |
| B1 | 25 | 19.4 | 191 | 169 | – | – | – | – |
| B2 | 21.5 | 15.2 | 6.7 | 1.1 | – | – | – | – |
| B3 | 286 | 304 | 125 | 126 | – | – | – | – |
| B4 | 3.3 | 3.4 | 14.3 | 9 | – | – | – | – |
| B5 | 2.1 | 1.6 | 1.9 | 0.3 | – | – | – | – |
| B6 | – | – | – | – | 1.3 | 1.2 | 5.3 | 3.2 |
